Values of other authors in paper PMC7083049.

Biological target: histone H4 (Homo sapiens) (UniProt P62805)

Q: For “JMJD2A Tudor domains (from UniProt O75164)”, which Kd is on record?
A: 2000 nM
